Test results published in IntAct's records for PubMed 27135603.

B1: TNF receptor-associated factor 3 (Homo sapiens), Q13114 (parent)
chain: MESSKKMDSPGALQTNPPLKLHTDRSAGTPVFVPEQGGYKEKFVKTVEDKYKCEKCHLVLCSPKQTECGHRFCESCMAALLSSSSPKCTACQESIVKDKVFKDNCCKREILALQIYCRNESRGCAEQLMLGHLLVHLKNDCHFEELPCVRPDCKEKVLRKDLRDHVEKACKYREATCSHCKSQVPMIALQKHEDTDCPCVVVSCPHKCSVQTLLRSELSAHLSECVNAPSTCSFKRYGCVFQGTNQQIKAHEASSAVQHVNLLKEWSNSLEKKVSLLQNESVEKNKSIQSLHNQICSFEIEIERQKEMLRNNESKILHLQRVIDSQAEKLKELDKEIRPFRQNWEEADSMKSSVESLQNRVTELESVDKSAGQVARNTGLLESQLSRHDQMLSVHDIRLADMDLRFQVLETASYNGVLIWKIRDYKRRKQEAVMGKTLSLYSQPFYTGYFGYKMCARVYLNGDGMGKGTHLSLFFVIMRGEYDALLPWPFKQKVTLMLMDQGSSRRHLGDAFKPDPNSSSFKKPTGEMNIASGCPVFVAQTVLENGTYIKDDTIFIKVIVDTSDLPDP
partner: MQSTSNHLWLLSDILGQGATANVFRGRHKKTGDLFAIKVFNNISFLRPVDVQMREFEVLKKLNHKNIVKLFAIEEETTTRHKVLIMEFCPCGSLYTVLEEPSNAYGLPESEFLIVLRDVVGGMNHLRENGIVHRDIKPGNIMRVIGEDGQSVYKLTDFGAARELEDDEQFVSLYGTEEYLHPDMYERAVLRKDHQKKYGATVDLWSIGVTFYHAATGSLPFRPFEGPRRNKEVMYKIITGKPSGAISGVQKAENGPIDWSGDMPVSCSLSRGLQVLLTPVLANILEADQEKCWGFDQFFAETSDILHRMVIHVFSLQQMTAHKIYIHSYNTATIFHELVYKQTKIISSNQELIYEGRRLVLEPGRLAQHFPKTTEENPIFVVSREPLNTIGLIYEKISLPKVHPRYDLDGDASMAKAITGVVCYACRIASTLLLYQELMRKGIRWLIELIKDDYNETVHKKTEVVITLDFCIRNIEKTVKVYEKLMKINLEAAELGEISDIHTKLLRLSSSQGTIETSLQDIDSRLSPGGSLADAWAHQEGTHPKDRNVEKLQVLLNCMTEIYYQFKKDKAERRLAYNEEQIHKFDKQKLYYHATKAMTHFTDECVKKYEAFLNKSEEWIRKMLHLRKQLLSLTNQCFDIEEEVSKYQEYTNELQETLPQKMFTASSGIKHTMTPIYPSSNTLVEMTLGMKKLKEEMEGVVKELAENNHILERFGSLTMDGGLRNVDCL
B2: Inducible T-cell costimulator (Homo sapiens), Q9Y6W8 (parent)
chain: MKSGLWYFFLFCLRIKVLTGEINGSANYEMFIFHNGGVQILCKYPDIVQQFKMQLLKGGQILCDLTKTKGSGNTVSIKSLKFCHSQLSNNSVSFFLYNLDHSHANYYFCNLSIFDPPPFKVTLTGGYLHIYESQLCCQLKFWLPIGCAAFVVVCILGCILICWLTKKKYSSSVHDPNGEYMFMRAVNTAKKSRLTDVTL
partner: B1 partner
B3: TNF receptor-associated factor 2 (Homo sapiens), Q12933 (parent)
chain: MAAASVTPPGSLELLQPGFSKTLLGTKLEAKYLCSACRNVLRRPFQAQCGHRYCSFCLASILSSGPQNCAACVHEGIYEEGISILESSSAFPDNAARREVESLPAVCPSDGCTWKGTLKEYESCHEGRCPLMLTECPACKGLVRLGEKERHLEHECPERSLSCRHCRAPCCGADVKAHHEVCPKFPLTCDGCGKKKIPREKFQDHVKTCGKCRVPCRFHAIGCLETVEGEKQQEHEVQWLREHLAMLLSSVLEAKPLLGDQSHAGSELLQRCESLEKKTATFENIVCVLNREVERVAMTAEACSRQHRLDQDKIEALSSKVQQLERSIGLKDLAMADLEQKVLEMEASTYDGVFIWKISDFARKRQEAVAGRIPAIFSPAFYTSRYGYKMCLRIYLNGDGTGRGTHLSLFFVVMKGPNDALLRWPFNQKVTLMLLDQNNREHVIDAFRPDVTSSSFQRPVNDMNIASGCPLFCPVSKMEAKNSYVRDDAIFIKAIVDLTGL
partner: B1 partner
B4: Inducible T-cell costimulator (Homo sapiens), Q9Y6W8 (parent)
chain: B2 chain

Variants of: B1
Details: with tbk1_human TBK1, Q9UHD2

Variant | effect of a mutation on the interaction
S518A;S519A;S520A;F521A;K522A;K523A;P524A;T525A;G526A;E527A | decreasing interaction strength

Variants of: B2
Details: with tbk1_human TBK1, Q9UHD2

Variant | effect of a mutation on the interaction
S170A;S171A;S172A;V173A;H174A;D175A;P176A;N177A;G178A;E179A | decreasing interaction strength

Variants of: B2
Details: with tbk1_human TBK1, Q9UHD2
Remark: another data set of the same source

Variant | effect of a mutation on the interaction
Y180F | with no effect

Variants of: B3
Details: with tbk1_human TBK1, Q9UHD2

Variant | effect of a mutation on the interaction
S453A;S454A;S455A;F456A;Q457A;R458A;P459A;V460A;N461A;D462A | disrupting interaction strength

Variants of: B4
Details: with p85a_human PIK3R1, P27986
p85a_human PIK3R1, P27986, sequence (P27986 whole entry): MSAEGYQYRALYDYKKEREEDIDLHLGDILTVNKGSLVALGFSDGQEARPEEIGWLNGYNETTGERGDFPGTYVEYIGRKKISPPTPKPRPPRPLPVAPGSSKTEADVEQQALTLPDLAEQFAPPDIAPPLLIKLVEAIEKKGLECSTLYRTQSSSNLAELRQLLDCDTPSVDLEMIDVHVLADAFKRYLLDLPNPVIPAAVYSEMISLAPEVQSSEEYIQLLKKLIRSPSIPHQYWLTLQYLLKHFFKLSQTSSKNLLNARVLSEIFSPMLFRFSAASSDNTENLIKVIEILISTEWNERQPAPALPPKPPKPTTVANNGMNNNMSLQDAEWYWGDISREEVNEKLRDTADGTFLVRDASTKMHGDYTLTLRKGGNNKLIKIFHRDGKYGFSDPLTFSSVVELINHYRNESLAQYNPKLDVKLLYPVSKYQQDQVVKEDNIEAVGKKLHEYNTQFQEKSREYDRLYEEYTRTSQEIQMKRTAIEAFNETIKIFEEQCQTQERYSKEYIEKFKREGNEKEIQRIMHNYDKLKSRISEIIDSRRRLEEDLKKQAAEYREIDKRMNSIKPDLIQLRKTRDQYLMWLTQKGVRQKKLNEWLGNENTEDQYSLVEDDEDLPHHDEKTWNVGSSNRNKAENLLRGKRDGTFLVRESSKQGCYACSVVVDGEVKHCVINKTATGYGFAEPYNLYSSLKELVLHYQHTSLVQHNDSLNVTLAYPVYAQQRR

Variant | effect of a mutation on the interaction
S170A;S171A;S172A;V173A;H174A;D175A;P176A;N177A;G178A;E179A | with no effect

Variants of: B4
Details: with p85a_human PIK3R1, P27986
Remark: another data set of the same source

Variant | effect of a mutation on the interaction
Y180F | disrupting interaction strength
